Reference: patent US20260109773A1 (HARPOON THERAPEUTICS, published 2026)

T1: human BCMA protein (human, UniProt Q02223 1-54, limits assumed)
T1 sequence: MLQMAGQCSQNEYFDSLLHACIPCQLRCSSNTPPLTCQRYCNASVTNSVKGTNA

B1: 253BH10 trispecific protein (other, not shown: large carriers)
chain: QVQLVESGGGLVQPGESLRLSCAASTNIFSISPMGWYRQAPGKQRELVAAIHGFSTLYADSVKGRFTISRDNAKNTIYLQMNSLKPEDTAVYYCNKVPWGDYHPRNVYWGQGTQVTVSS
notes: also called molecule with the parental CDRs
B2: cynomolgus CD3ε-Fc (Fc fusion, UniProt Q95LI5 22-117, looked up)
chain: QDGNEEMGSITQTPYQVSISGTTVILTCSQHLGSEAQWQHNGKNKEDSGDRLFLPEFSEMEQSGYYVCYPRGSNPEDASHHLYLKARVCENCMEMD
notes: loaded on streptavidin tips; not shown: Fc part
B3: cynomolgus serum albumin (other, UniProt A2V9Z4 25-608, looked up)
chain: DTHKSEVAHRFKDLGEEHFKGLVLVAFSQYLQQCPFEEHVKLVNEVTEFAKTCVADESAENCDKSLHTLFGDKLCTVATLRETYGEMADCCAKQEPERNECFLQHKDDNPNLPPLVRPEVDVMCTAFHDNEATFLKKYLYEVARRHPYFYAPELLFFAARYKAAFAECCQAADKAACLLPKLDELRDEGKASSAKQRLKCASLQKFGDRAFKAWAVARLSQKFPKAEFAEVSKLVTDLTKVHTECCHGDLLECADDRADLAKYMCENQDSISSKLKECCDKPLLEKSHCLAEVENDEMPADLPSLAADYVESKDVCKNYAEAKDVFLGMFLYEYARRHPDYSVMLLLRLAKAYEATLEKCCAAADPHECYAKVFDEFQPLVEEPQNLVKQNCELFEQLGEYKFQNALLVRYTKKVPQVSTPTLVEVSRNLGKVGAKCCKLPEAKRMPCAEDYLSVVLNRLCVLHEKTPVSEKVTKCCTESLVNRRPCFSALELDEAYVPKAFNAETFTFHADMCTLSEKEKQVKKQTALVELVKHKPKATKEQLKGVMDNFAAFVEKCCKADDKEACFAEEGPKFVAASQAALA
notes: loaded on streptavidin tips
B4: human BCMA on BCMA-expressing cell lines (receptor)
chain: MLQMAGQCSQNEYFDSLLHACIPCQLRCSSNTPPLTCQRYCNASVTNSVKGTNAILWTCLGLSLIISLAVFVLMFLLRKINSEPLKDEFKNTGSGLLGMANIDLEKSRTGDEIILPRGLEYTVEECTCEDCIKSKPKVDSDHCFPLPAMEEGATILVTTKTNDYCKSLPAALSATEIEKSISAR
notes: BCMA as expressed by human tumour cell lines; also called BCMA expressing cells (EJM, Jeko1, MOLP-8, OPM-2, NCI-H929, RPMI-8226)
B5: human CD3ε-Fc (Fc fusion, UniProt P07766 23-126, looked up)
chain: DGNEEMGGITQTPYKVSISGTTVILTCPQYPGSEILWQHNDKNIGGDEDDKNIGSDEDHLSLKEFSELEQSGYYVCYPRGSKPEDANFYLYLRARVCENCMEMD
notes: as for B2

Legend:
human BCMA protein = target: T1, human BCMA protein; experiment: affinity to human BCMA protein; method not stated
[1] = target: B4; experiment: cell-based or functional assay
02B05 TriTAC [2] = target: T2, 02B05 TriTAC; experiment: Octet; 2.5 nM cynomolgus CD3ε-Fc on streptavidin tips; 15 mg/ml HSA; n=2
T2 construct: TriTAC trispecific; His6 in entry; also called exemplary BCMA targeting trispecific protein (02B05)
Protocol: (§1) The affinities were measured using an Octet instrument. For these measurements, streptavidin tips were first loaded with 2.5 nM human BCMA-Fc, 2.5 nM cynomolgous BCMA-Fc, 2.5 nM human CD3ε-Fc, 2.5 nM cynomolgus CD3ε-Fc, 50 nM human serum albumin (HSA), 50 nM cynomolgus serum albumin, or 50 nM mouse serum albumin. […] Average calculated KD values from these studies are provided in Table 4 (n indicates the number of independent measurements, n/d indicates no binding detected under the conditions tested).

02B05 TriTAC [3] = target: T2, 02B05 TriTAC; experiment: Octet; 50 nM cynomolgus serum albumin on streptavidin tips; n=1
Protocol: as §1

02B05 TriTAC [4] = target: T2, 02B05 TriTAC; experiment: flow cytometry on NCI-H929 cells (BCMA RNA FPKM 1931); bound protein detected with an Alexa Fluor 647 antibody against the anti-albumin domain; negative control: GFP trispecific protein
02B05 TriTAC [5] = target: T2, 02B05 TriTAC; experiment: Octet; 2.5 nM human CD3ε-Fc on streptavidin tips; 15 mg/ml HSA; n=2
Protocol: as §1

T2 sequence (chain, as listed by the source): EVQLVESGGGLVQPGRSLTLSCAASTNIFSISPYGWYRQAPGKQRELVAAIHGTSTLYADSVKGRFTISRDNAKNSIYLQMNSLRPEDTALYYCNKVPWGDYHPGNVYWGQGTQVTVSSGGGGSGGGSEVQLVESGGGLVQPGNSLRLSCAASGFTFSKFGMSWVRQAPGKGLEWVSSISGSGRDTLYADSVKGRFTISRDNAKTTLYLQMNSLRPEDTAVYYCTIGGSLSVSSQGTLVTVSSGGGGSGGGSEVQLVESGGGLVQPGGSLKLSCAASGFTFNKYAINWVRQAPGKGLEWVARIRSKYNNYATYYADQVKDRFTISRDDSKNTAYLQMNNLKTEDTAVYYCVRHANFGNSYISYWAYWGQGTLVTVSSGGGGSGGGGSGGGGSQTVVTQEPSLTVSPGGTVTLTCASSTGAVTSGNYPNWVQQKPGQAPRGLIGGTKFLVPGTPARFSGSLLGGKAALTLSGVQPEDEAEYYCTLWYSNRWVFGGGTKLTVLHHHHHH

Binder: B1
Kd (human BCMA protein): 27.7 nM | TDCC EC50, EJM cells [1]: 0.0529 nM

Binder: B2
Kd (02B05 TriTAC [2]): 7.8 nM

Binder: B3
Kd (02B05 TriTAC [3]): 7.5 nM

Binder: B4
binding result (02B05 TriTAC [4]): binds

Binder: B5
Kd (02B05 TriTAC [5]): 8 nM
